Measured values as given in patent US20200095636A1, “ANTIDOTE-MEDIATED REVERSAL OF EXTRACELLULAR APTAMER STAINING” (Duke University, published 2020).

Assays:
[1] = target: epidermal growth factor receptor (EGFR) on A431 epidermoid carcinoma cells (human) (UniProt P00533); test: flow cytometry of stained A431 cells immediately before and after FACS
[2] = target: EGFR (epidermal growth factor receptor) (Homo sapiens, UniProt P00533 P00533:25-1210); test: flow; apparent; A431 cells, on ice 30 min, media + 1% BSA + salmon sperm DNA; binding blocked or reversed at 37 C by antidotes A9 and mA9 but not scrambled sA9; settings: tags: endogenous on A431 epidermoid carcinoma cells (ATCC); label: 5' AF488
Procedure: All aptamers were folded in PBS+/+ by denaturation at 65° C. for 5 min followed by passive cooling to ambient temperature for 3 min. In general, 500 nM aptamer solutions were used for staining, but this concentration varied as noted in some assays. For aptamer-SA staining solutions, 2:1 aptamer conjugates were prepared with 1 μM aptamer and 500 nM AF488-SA or AF647-SA. All staining solutions were prepared in Media+ and contained 1 mg/mL salmon sperm DNA to mitigate non-specific binding. All antibodies were used as 1:50 dilutions in Media+ with 1 mg/mL salmon sperm DNA. Both FITC-conjugated ICR10 (Abcam) and PE-conjugated D1D4J (Cell Signaling Technologies) monoclonal EGFR antibodies were used for staining.
A431 cells were stained with various concentrations (25, 50, 125, 250 or 500 nM) of E07 only or E07-SA conjugate mixtures prepared by reacting 1:1, 2:1 or 3:1 biotinylated E07 with tetrameric streptavidin. Stained cells were washed, analyzed by flow cytometry and their fluorescence corresponding to the amount of bound E07 or E07-SA was plotted to determine apparent binding affinities (dissociation constants; KD) and cell surface saturation (total number of receptors; Bmax). Conjugate mixtures prepared from higher E07: SA ratios had higher apparent affinities, but lower apparent saturation.

For “FITC-conjugated ICR10 (Abcam) monoclonal EGFR antibody”, the losses during sorting (percent of stain fluorescence lost) [1] was 11%.

In the case of “PE-conjugated D1D4J (Cell Signaling Technologies) monoclonal EGFR antibody”, the losses during sorting (percent of stain fluorescence lost) [1] is reported as 11%.

In the case of GGACGGAUUUAAUCGCCGUAGAAAGCAUGUCAAAGCCGGAACCGUCC (ssRNA, 2'-F C/U, 2'-OH purines, 3' idT) [E07], the Kd [2] is reported as 62.7 nM.
